41 sequences from the nanobody polyreactivity screen of Harvey et al. (2022) can be followed below.

A short description of the series: yeast display, Sf9 membrane polyspecificity reagent, FACS + sequencing; frameworks hold sequencing errors. The gist of the method:
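Polyreactivity labels are assigned by the sorting gate from which each nanobody was recovered. The gates were low and high (top ~1%), set on anti-HA fluorescence for expression and streptavidin fluorescence for reagent binding. Before sorting, galactose-induced (36–48 hours) yeast display cells were stained for 1 hour at 4 °C with 10% biotinylated, detergent-solubilized Sf9 membrane reagent.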
“QVQLVESGGGLVQAGGSLRFSCAACGMTIWYYGMGSYRQAPGKERELLAAISKTGGRTYDADSVKGRFTISRDNAKNTVYLQMNRLKPEDTAVYNCNARYLLVSRYWENDYWGQATQVTVSS”: the “polyreactivity (PSR sort gate)” value is given as “low polyreactivity”.

For “QVQLVESGGGLVQAGGSLRFSCAASGFIFSFYAMGWYRQAPGKERELVAAISSSGSTNYADSVKGRFTISRDNAKNTVYLQMNSLKPEDTAVYYCAARWHRSRAGYYYWGQGTQVTVSS”, the “polyreactivity (PSR sort gate)” value was “high polyreactivity”. The value for “QVQLVESGGGLVQAGGSLRFSCAASGFTFTVYAMGWYRQAPGKGRELVAAISWNGGSTYYADSVKGRFTISRDNATNTDYLQRNSLKPEDTAVYYCNKYYYRGVRYYRDHDYWGQGTQVTVSS” was “high polyreactivity”. The same measure for “QVQLVESGGGLVQAGGSLRFSCAASGGTFSGYAMGWYRQAPGKERELVAAITSGGGTTYADSVKGRFTISRDNAKNTVYLQMNSLKPEDTAVYYCAKEGHVVIFYIGQYELDYWGQGTQVTVSS”: “low polyreactivity”. The value for “QVQLVESGGGLVQAGGSLRFSCAASGGTFWYYAMGWYRQAPGKERELDASISRGGSTNYADSVKGRFTISRDNAKNTVYLQMNSLKPEDTAVYYCIAGLRVGPRRYVDYEYDYWGQGTQVTVSS” was “low polyreactivity”; that for “QVQLVESGGGLVQAGGSLRFSCAASGIIFYFYTMGWYRQAPGKERELVAAISSSGGRTFYADSVKGRFTISRDHAKNTVYLQMNSLKPEDTAVYYCAAGYPYGGDYWGQGTQVTVSS” was “high polyreactivity”. As for “QVQLVESGGGLVQAGGSLRFSCAASGLIFRGYVMGWYRQAPGKERELVAAISRRGVNTYYADSVKGRFTISRDNAKNTVYLQMNSLKPEDTAVYYCAAETHVGWPAKFDYWGQGTRVTVSS”, the “polyreactivity (PSR sort gate)” value is “high polyreactivity”. The value for “QVQLVESGGGLVQAGGSLRFSCAASGLTFSWNAMGWDRQAPGQERELVAAITSSGTSTYYADSVKGRFSISRDNAKITVYLQMHSLKPEDTAVYYGAAEGDYWGWEDDYWGQGTQVTVSS” was “high polyreactivity”; that for “QVQLVESGGGLVQAGGSLRFSCAASGRIFDYYAMGGYRQAPGKERELVATINVSDGSTYYADSVKGRFTISRDNAKNTVYLQMNSLKPEDTAVYYCAAAGWVPFDSLDLNYWGQGTQVTVSS” was “low polyreactivity”; that for “QVQLVESGGGLVQAGGSLRFSCAASGRIFGRYAMGWYRQAPGKERELDAAISYSGGSTYYADSVKGRFTISRDNAKNTVYLQMNSLKPEDTAVYYCAVVVYQYTPSQRFYYWGQGTQVTVSS” was “high polyreactivity”. The value for “QVQLVESGGGLVQAGGSLRFSCAASGRIFSIYAMGWYRQAPGKERELVAAISKRGGSTSYADSVKGRFTISRDNAKNTVYLQMNSLKPEDTAVYYCNARGWIPARGWDDYYWGQGTQVTVSS” was “high polyreactivity”. The same measure for “QVQLVESGGGLVQAGGSLRFSCAASGRIFYANAMGWYRQAPGKERELVAAISSGGSTYYADSVKGRFTISRDNAKNTVFLQMNSLKPEDTAVYYCAVYTHKKVRPEYVYWGQGTQVTVSS”: “low polyreactivity”. As for “QVQLVESGGGLVQAGGSLRFSCAASGRNFVVYAMGWYRQAPRKEREFVAAITWSGDSTTYYADSVKGRFTISRDNAMTTFYLQLKSLKPDDTAVYYCASEGDGANGGAYDYWGQGTQVNVSS”, the “polyreactivity (PSR sort gate)” value was “low polyreactivity”. The same measure for “QVQLVESGGGLVQAGGSLRFSCAASGRTFYGYAMGWYRQAPGKERELVAAITRSGGSTYYADSVKGRFTISRDNAKNTVYLQMNSLKPEDTAVYYCAAGGQARHDYWGQGTQVTVSS”: “low polyreactivity”; for “QVQLVESGGGLVQAGGSLRFSCAASGSIIYFYAMGWYRQAPGKERELVATITSGGRTYYADSVKGRFTISRDTAKNTVYLQMNSLKPEDTAVYYCNRRPVSYRYSSYNYDYLGQGTQVTVSS”: “high polyreactivity”; for “QVQLVESGGGLVQAGGSLRFSCAASGSILSKNAMGWYRQAPGKERELVAAISSGGSTYYADSVKGRFTISRDKAKNTVYLQLNSLKPEDTAVYYCATYCTSVAYHLYYWGQGTQVTVSS”: “low polyreactivity”.

For the sequence “QVQLVESGGGLVQAGGSLRFSCAASGSTFGDYTMGWYRQAPGKERELVAAISTSGTITYYADSVKGRFTISRDNAKNTVYLQMNSLKPEDTAVYYCAKLSQYTPVNDGYYWGQGTQVTVSS”, the “polyreactivity (PSR sort gate)” value is recorded as “low polyreactivity”. The same measure for “QVQLVESGGGLVQAGGSLRFSCAASGSTFPYYAMGLYRQAPGKERELVATITKRGGRTYYADSVKGRFTISRDNAKNTVYLQMISLKPEDTAVYYCAARYRFAVTYEYWGQGTQVTVSS”: “high polyreactivity”; for “QVQLVESGGGLVQAGGSLRFSCAASGYIFTPYAMGWYRQAPGKERELVAAISWSGGSTYYADSVKGRFTISRDNEKNTVYLQMNSLKPEDTAVYYCAAESAWGSRVFYSKFYYWGQGTQVTVSS”: “low polyreactivity”; for “QVQLVESGGGLVQAGGSLRFSCAATGSISYGYAMGWYKQAHGKERELVAAISRRGGTTYFADSVKGRFTISRDNAKNSLYLQINSLKAEDTAVYYCNALLPDLAQYDYWGQGTQVTVSS”: “high polyreactivity”. The value for “QVQLVESGGGLVQAGGSLRFSCADSGFTFRTYAMGWYIQAPGKERELVATIRRAGSTYYADSVKGRFTISRDNAKNTVYLQMNSLKPEDTAVYYCAATHYSFSWGYDYWGQGTQVTVSS” was “high polyreactivity”; that for “QVQLVESGGGLVQAGGSLRFSSAASGRTFSSNAMGWYIQAPGKERELVAAISNSGSSTYYADSVKGRFTISRDNAKNTVYLQMNSLKPEDSAVYYCNAVGVYYWWYRLYDYWGQGTQVTVSS” was “high polyreactivity”. The same measure for “QVQLVESGGGLVQAGGSLRFSSPASGGTFFVNAMGWYRQAPGKERELVASITLSGGSSYYADSVKGRFTISRDNAKNTVYLQMNSLKPEDTAVYYCAKGWTRDNEREREDEYWGQGTQGTVSS”: “low polyreactivity”; for “QVQLVESGGGLVQAGGSLRIICAASGSIFTYNSMGWYREAPGKERELVAAISASGGRTYYADSVKGRFTISRDNAKNTVYLQMNSLKPEDTAVYYCNVLHRSDSGYYYRYDYWGQGTQVTVSS”: “high polyreactivity”; for “QVQLVESGGGLVQAGGSLRIICPASGNTFAYYAMGWYRQAPGKEREFVAAISGSGGRTYYADSVKGRFTISRDNAKNTVYLQMNILKPEDTAVYYCNARPAGGQGYGYWGQGTQVTVSS”: “high polyreactivity”.

With “QVQLVESGGGLVQAGGSLRISCAASAITFPRNAMGWYREAPGKERELVAAITSVGSTKYADSVKGRFTFSRDNAKNTVYLQMNSLKPEDTAVYYCATRGASAISNSVRWSYYYWGQGTQVTVSS”, the “polyreactivity (PSR sort gate)” value is listed as “low polyreactivity”. For “QVQLVESGGGLVQAGGSLRISCAASGFIFDPYAMGWYRQAPGKERELVASINTRGDRTSYADSVKGRFTISRDNAKNTVYLQMNSLKPEDTAVYYCNADAVDQVGPDDDYWGQGTQVTVSS”, the “polyreactivity (PSR sort gate)” value was “low polyreactivity”. The same measure for “QVQLVESGGGLVQAGGSLRISCAASGFIFGTNAKGWYRQAPGKERELVAAINCRGGGTYYADSVKGRFTISRDNAKYTVYLEMNSLKPEDTAVYYCAASRFDYWGQGTQVTVSS”: “low polyreactivity”.

With “QVQLVESGGGLVQAGGSLRISCAASGFIFNIYAMGWYRQAPGKERELVASITSGGNTNYADSVKGRFTISRDNAKNTVYLQMNSLKPEDTAVYYCAAETSSSRGYDYWGQGTQVTVSS”, the “polyreactivity (PSR sort gate)” value is given as “low polyreactivity”. The same measure for “QVQLVESGGGLVQAGGSLRISCAASGFIFPWYTMGWYRQAPGKERELVAVINQSGGSTYYADSVKGRFTISRDNAKNTVYLQMNSLKPEDTAVYYCAARLVKQYYYWGQGTQVTVSS”: “high polyreactivity”; for “QVQLVESGGGLVQAGGSLRISCAASGFIFQSNAMGWYRQAPGKERELVAAISWSGDNTYYADSVKGRFTISRDNAKNTVYLQMNSLKPEDTAVYYCAAVPYPSYYDTGYDYWGQGTQVTVSS”: “low polyreactivity”. In the case of “QVQLVESGGGLVQAGGSLRISCAASGFIFTGTALGWYRQAPGKERELVAAITWSGGRTYYADSVKGRFTISRDNAKNTVYLQMNSLKPEDTAVYYCNVYFSIAQRYVGGLIAHDNYWGQGTQVTVSS”, the “polyreactivity (PSR sort gate)” value is recorded as “high polyreactivity”. The value for “QVQLVESGGGLVQAGGSLRISCAASGFIISFYAMGWYRQAPRKERELVAAIKLSGGSTYYADSVKGRFTISRDNAKNTVYLQMNSLKPEETAVYYCNDVQYFSIPKPVWLFVLRYYYWGHGTQVTVSS” was “low polyreactivity”; that for “QVQLVESGGGLVQAGGSLRISCAASGFTFSYNAMGWYRQAPGKERELVAGINVSSGGDTYADSVKGRFTISRDNAKNTVYLQMNSLKPEDTAVYYCAKDHYGDDTYGTPYDYDYWGQGTQVTVSS” was “low polyreactivity”; that for “QVQLVESGGGLVQAGGSLRISCAASGGIIAINSMRCYRQAPGKERELVAAISWGDGITYYSDSVKRRFTISRDNAKYTVYLHMISLKPEDTAVYYCAADEDEYRGGDESWGQGTQVTVSA” was “low polyreactivity”. The same measure for “QVQLVESGGGLVQAGGSLRISCAASGGTFQAYAMGWYRPAPGKERELVAAITRRGTRTYYADSVKGRFTISRDNAKNTVYLQMNSLKPEDTAVYYCAAVRYPNWYDYWGQGTQVTVSS”: “high polyreactivity”; for “QVQLVESGGGLVQAGGSLRISCAASGIIFYRNAMGWYRQAPGKERELVAVITASGGNTYYADSVKGRFTISRDNAKNTVYLQMNSLKPEDTAVYYCNRELTSPRRWHVSRAYDYWGQGTQVTVSS”: “low polyreactivity”; for “QVQLVESGGGLVQAGGSLRISCAASGITFYGYAMGRYRQAPGKERELVATISKSGGITSYADSVKGRFTISRDNAKNTVYLQMNSLKPEDTAVYYCNRGKSYGGYDYWGQGTQVTVSS”: “low polyreactivity”. The same measure for “QVQLVESGGGLVQAGGSLRISCAASGLIFGINAMGWYIQAPGKERELVATITSGGGTNYADSVKGRFTISRDNAKNTVYLQMNSLKPEYTAVYFCALDSASDTIYDYWGQGTQGTVSS”: “low polyreactivity”; for “QVQLVESGGGLVQAGGSLRISCAASGLTFDYNAMGWYTQAPGKERELVAAITSGGSTKYADSVKGRFTISRDNSKNTVYLQMNSLKPEDTAVYYCARDRPGDYAGYDYWGQGTQVTVSS”: “low polyreactivity”. With “QVQLVESGGGLVQAGGSLRISCAASGLTFGRYAMGWYRQAPGKEMELVAAITGSGGRTYYADSVKGRFTISRDNAKNNVYLQINSLKQEDTAVYYCATEASPRGYAEYDYWGQGTQVTVSS”, the “polyreactivity (PSR sort gate)” value was “high polyreactivity”.
